Consider eight molecules from PMC10732398 (PLOS Pathogens, 2023).

Test [1] has as its system ⍺4β7. Description: SPR: inhibition by linear peptides of soluble ⍺4β7 binding to a CD4 D1D2 coated surface. The note with it: for inhibition of ⍺4β7 binding to D1D2 (in words): SPR, Fig 7B, 7D, S5 Fig; for inhibition of ⍺4β7 binding to CD4 D1D2 coated surface: SPR peptide scan (Fig 4A), ⍺4β7 pre-incubated with peptide 2 hours at room temperature, 1 mM MnCl2. The source says:
We next modified our SPR -based assay in order to map the site(s) on CD4 that interacts with ⍺4β7. In this modified assay ⍺4β7 was passed over a surface coated with CD4 D1D2 in the absence or presence of 42 overlapping 15 amino acid linear peptides spanning CD4 residues 1–178 (S2 Table). Two peptides located in CD4 D1, #7 and #9, inhibited ⍺4β7 binding by ~17% (Fig 4A). The final peptide in CD4 D2, p42, inhibited binding by ~ 66%. Linear peptides often lack the true conformation of the protein from which they are derived. Additionally, the kinetic format of our assay allows for ligand-analyte rebinding during the association phase. These features render this inhibition assay somewhat insensitive. Nevertheless, the dynamic range of this assay is sufficient to identify interactions that are worthy of follow-up investigation (S4 Fig). As such, our preliminary findings raised the possibility that both D1 and D2 domains of CD4 interact with ⍺4β7. Of note, MAdCAM-1 and VCAM-1, like CD4, present two tandemly arrayed N-terminal IgSF domains (Fig 4B). In both cases, binding to ⍺4β7 is mediated by a 1° binding site in their D1s and an accessory site, located in their D2s. The term accessory is a misnomer insofar as these sites plays an essential role in ⍺4β7 binding. Follow-up experiments focused on p9 and p42, which we herein refer to as pCD4^33-47 and pCD4^165-178. pCD4^33-47 partially overlaps the D1 C’C” β-strands and a connecting loop. The primary gp120 contact site (Phe^43) lies at the N-terminal edge of this loop (Fig 4C). pCD4^165-178 includes Q^165 and K^166. These residues lie primarily within the G β-strand of D2, close to the boundary with D3. Because peptide inhibition assays sometime mediate nonspecific effects, further analysis was performed to better establish the role of these two regions of CD4 in binding to ⍺4β7.
To determine if this is the case, we employed an SPR -based assay. Biosensor surfaces were coated with either CD4 D1D2 or a 42 aa cyclic V2 peptide derived from the subtype E 92TH023 gp120 (cV2 92TH023). A third surface coated with MAdCAM-Ig was employed as a positive control. Soluble ⍺4β7 was passed over these surfaces. We then evaluated the capacity of staggered 15 aa peptides that span either CD4 D2 or gp120 V2 to inhibit this interaction (Fig 7A).
Experiments were performed using a Biacore 3000 instrument (Cytiva Life Sciences) using CM4 or CM5 sensor chips. The data were evaluated using BIAevaluation 4.1.1 software (Cytiva Life Sciences). The chip surface was activated by injecting 35 μl of a 1:1 mixture of 0.05 M N-hydroxysuccinimide and 0.2 M N-ethyl-N-(dimethylaminopropyl) carbodiimide at 5 μl/min. NeutrAvidin, HIV gp120, sCD4 (D1D2) or Hu-MAdCAM-Ig (R&D Systems) at concentrations of 5 μg/ml in 10mM NaOAc, pH 4.5, were immobilized to 250–750 resonance units (RU). After the proteins were immobilized to the desired densities, unreacted sites were blocked with 35 μl of 1 M Tris-HCl (pH 8.0). Biotinylated cyclic V2 peptides (1 μg/ml in 20 mM Tris-HCl, pH 8.0) were bound to the NeutrAvidin surfaces to densities of approximately 250–300 RU. One surface was activated and blocked without ligand as a control surface for non-specific binding. Signal from the control surface was subsequently subtracted. Running buffer was HBS (pH 7.4), 1 mM MnCl2, 0.005% Tween- 20, 0.05% soluble carboxymethyl-dextran. Binding experiments were carried out at a flow rate of 25 μl/min at 25°C. After a 2 min injection, the surface was washed for an additional 2 min in running buffer allowing dissociation of the bound ligand from the surface. The surfaces were regenerated by multiple injections of 4.5 M MgCl2 at a flow rate of 100 μl/min. Inhibition of ⍺4β7 binding by linear V2-loop and CD4 derived peptides was carried out by pre-incubating ⍺4β7 with the peptides in running buffer at the indicated concentrations for 2 hours at room temperature prior to passing them over the prepared surfaces as described above. […]
A general note: In SPR one partner is held on a chip, and binding of the other changes the refractive index at the surface.

Test [2] deals with BG505 gp120 (monomeric gp120) (HIV-1 BG505). Description: SPR.
Test [3] addresses CD4 D1D2 protein (23 kD, aa 1-183) (human). Description: SPR.
In test [4] the target is BG505 SOSIP env trimer (HIV-1 BG505). Description: SPR.
The target of test [5] is T1, soluble α4β7 (recombinant integrin α4β7) (UniProt P13612 35-977; P26010 20-723).
T1 construct: also called integrin ⍺4β7; recombinant ⍺4β7
The experiment in a line: SPR. The note with it: both partners purified.

Turning to “IVVLAFQKASSIVY [CD4 P45, overlapping linear CD4 D2 peptide]”, the “inhibition of ⍺4β7 binding to D1D2 (in words)” value (from here on “inhibition … (in words)”) in test [1] is listed as “unable to inhibit”.
For “KIDIVVLAFQKASS [CD4 P44, overlapping linear CD4 D2 peptide]”, in test [1], the “inhibition … (in words)” value is reported as “unable to inhibit”.
For the molecule “QFHWKNSNQIKILGN [CD4 P7, overlapping linear CD4 peptide, CD4 D1]”, in test [1], the “inhibition of ⍺4β7 binding to CD4 D1D2 coated surface” value was ~ 17%.
For “QIKILGNQGSFLTKG [CD4 P9, linear CD4 D1 peptide overlapping the C'C'' β-strands and connecting loop]”, the “inhibition of ⍺4β7 binding to CD4 D1D2 coated surface” value in test [1] is ~ 17%.
“VEFKIDIVVLAFQK [CD4 P43, overlapping linear CD4 D2 peptide]”: the “inhibition … (in words)” value in test [1] is “reduced inhibition relative to pCD4^165-178”.
What is called Kd is the equilibrium constant for the complex coming apart. What is called koff is a measure of how fast the partners let go of each other. A word on the kon: it is a measure of how fast the partners come together. In the case of “soluble α4β7 (recombinant integrin α4β7) (from UniProt P13612 35-977; P26010 20-723) (complex)”, in test [2], the Ka was found to be 1.01e+09 M⁻¹, the dissociation constant Kd was 0.994 nM, the koff was 0.00136 s⁻¹ and the kon came out at 1.37e+06 M⁻¹ s⁻¹. Moreover, in test [3], the Ka worked out at 2.8e+08 M⁻¹, the off-rate constant (koff) is 0.000464 s⁻¹ and the kon is 130000 M⁻¹ s⁻¹. In test [4], this molecule registered a Ka of 7.47e+08 M⁻¹, a Kd of 1.34 nM, a koff of 0.00112 s⁻¹ and a kon of 840000 M⁻¹ s⁻¹.

B1: VCAM-Ig (Fc fusion, UniProt P19320 25-698, looked up)
chain: FKIETTPESRYLAQIGDSVSLTCSTTGCESPFFSWRTQIDSPLNGKVTNEGTTSTLTMNPVSFGNEHSYLCTATCESRKLEKGIQVEIYSFPKDPEIHLSGPLEAGKPITVKCSVADVYPFDRLEIDLLKGDHLMKSQEFLEDADRKSLETKSLEVTFTPVIEDIGKVLVCRAKLHIDEMDSVPTVRQAVKELQVYISPKNTVISVNPSTKLQEGGSVTMTCSSEGLPAPEIFWSKKLDNGNLQHLSGNATLTLIAMRMEDSGIYVCEGVNLIGKNRKEVELIVQEKPFTVEISPGPRIAAQIGDSVMLTCSVMGCESPSFSWRTQIDSPLSGKVRSEGTNSTLTLSPVSFENEHSYLCTVTCGHKKLEKGIQVELYSFPRDPEIEMSGGLVNGSSVTVSCKVPSVYPLDRLEIELLKGETILENIEFLEDTDMKSLENKSLEMTFIPTIEDTGKALVCQAKLHIDDMEFEPKQRQSTQTLYVNVAPRDTTVLVSPSSILEEGSSVNMTCLSQGFPAPKILWSRQLPNGELQPLSENATLTLISTKMEDSGVYLCEGINQAGRSRKEVELIIQVTPKDIKLTAFPSESVKEGDTVIISCTCGNVPETWIILKKKAETGDTVLKSIDGAYTIRKAQLKDAGVYECESKNKVGSQLRSLTLDVQGRENNKDYFSPE
notes: also called recombinant VCAM-Ig
For the molecule B1, in test [5], the Ka amounted to 2.76e+07 M⁻¹, the Kd amounted to 36.3 nM, the koff turned out to be 0.00141 s⁻¹ and the kon worked out at 38700 M⁻¹ s⁻¹.

B2: MAdCAM-Ig (Fc fusion, human, UniProt Q13477 19-317, looked up)
chain: QSLQVKPLQVEPPEPVVAVALGASRQLTCRLACADRGASVQWRGLDTSLGAVQSDTGRSVLTVRNASLSAAGTRVCVGSCGGRTFQHTVQLLVYAFPDQLTVSPAALVPGDPEVACTAHKVTPVDPNALSFSLLVGGQELEGAQALGPEVQEEEEEPQGDEDVLFRVTERWRLPPLGTPVPPALYCQATMRLPGLELSHRQAIPVLHSPTSPEPPDTTSPESPDTTSPESPDTTSQEPPDTTSPEPPDKTSPEPAPQQGSTHTPRSPGSTRTRRPEISQAGPTQGEVIPTGSSKPAGDQ
notes: also called Hu-MAdCAM-Ig; recombinant MAdCAM-Ig
B2: in test [5], the Ka was 1.12e+08 M⁻¹, the equilibrium dissociation constant (Kd) was determined as 8.92 nM, the koff is 0.000863 s⁻¹ and the kon amounted to 96700 M⁻¹ s⁻¹.
